How the values were obtained:
[1] = target: T1, recombinant human ILT4 (LILRB2) (human, UniProt Q8N423 22-460); assay: SPR, Biacore 8K, mAb captured on anti-human Fc, LILRB2 at 100 nM; legend: ++++ tight binding (<100 pM KD)
T1 construct: Bought protein (Acro Biosystems or R&D Systems); also called ILTR4
Protocol: (§1) SPR was used to determine the specificity of four humanized anti-ILT4 mAbs for binding to LILRB2 and to determine any cross-reactivity with nine other LILRA and LILRB family members. LILR proteins were purchased from Acro Biosystems or R&D Systems, with sequence provided below. The studies were performed with a Biacore 8K instrument using a CM4 sensor chip with a running buffer of HBS-P+, 100 μg/mL BSA. Anti-human Fc specific capture surfaces were prepared using standard amine coupling chemistry. MAb was captured to flow cell 2 with flow cell 1 serving as the reference flow cell. Each of the nine family members and LILRB2 were injected at 100 nM at 30 μL/min for 90 sec with 240 sec of dissociation. […] All sensorgrams were doubled-referenced during processing of the data.

LILRA1 = target: T2, LILRA1 (human, UniProt O75019 17-461); assay: SPR, Biacore 8K cross-reactivity study
T2 construct: Bought protein; limits of the extracellular domain are marked by bold type not visible here; whole entry named; also called recombinant human LILRA1
Protocol: as §1

LILRB3 = target: T3, LILRB3 (human, UniProt O75022 24-443); assay: SPR, Biacore 8K, mAb captured on anti-human Fc, analyte injected
T3 construct: Bought protein; limits of the extracellular domain are marked by bold type not visible here; whole entry named; also called recombinant human LILRB3; ILT5
Protocol: as §1

LILRA5 = target: T4, LILRA5 (human, UniProt A6NI73 42-268); assay: as above
T4 construct: Bought protein; limits of the extracellular domain are marked by bold type not visible here; whole entry named; also called recombinant human LILRA5
Protocol: as §1

LILRB4 = target: T5, LILRB4 (human, UniProt Q8NHJ6 22-259); assay: as above
T5 construct: Bought protein; limits of the extracellular domain are marked by bold type not visible here; whole entry named; also called recombinant human LILRB4; ILT3
Protocol: as §1

LILRA6 = target: T6, LILRA6 (human, UniProt Q6PI73 24-447); assay: as above
T6 construct: Bought protein; limits of the extracellular domain are marked by bold type not visible here; whole entry named; also called recombinant human LILRA6
Protocol: as §1

LILRA4 = target: T7, LILRA4 (human, UniProt P59901 24-446); assay: as above
T7 construct: Bought protein; limits of the extracellular domain are marked by bold type not visible here; whole entry named; also called recombinant human LILRA4
Protocol: as §1

LILRA2 = target: T8, LILRA2 (human, UniProt Q8N149 24-449); assay: as above
T8 construct: Bought protein; limits of the extracellular domain are marked by bold type not visible here; whole entry named; also called recombinant human LILRA2
Protocol: as §1

LILRA3 [2] = target: T9, LILRA3 (human, UniProt Q8N6C8 24-439); assay: SPR, Biacore 8K cross-reactivity study, single concentration 100 nM; lower end of the range 600-700 nM
T9 construct: Bought protein; limits of the part used are marked by bold type not visible here; whole entry named; also called recombinant human LILRA3
Protocol: as §1

LILRA3 [3] = target: T9, LILRA3; assay: SPR, Biacore 8K, mAb captured on anti-human Fc, LILRA3 at 100 nM; legend: + weak binding (~600-700 nM KD)
Protocol: as §1

LILRA3 [4] = target: T9, LILRA3; assay: SPR, Biacore 8K cross-reactivity study, single concentration 100 nM; upper end of the range 600-700 nM
Protocol: as §1

[5] = target: T1, recombinant human ILT4 (LILRB2); assay: SPR, high resolution kinetics, triplicate, LALA antibody; 95% CI in parentheses
[6] = target: T1, recombinant human ILT4 (LILRB2); assay: SPR, Biacore T200, mAb captured on anti-Fc, ILT4 injected, medium resolution, 25 C
Summary of the method: (§2)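 Mouse, chimeric or humanized mAbs captured on anti-Fc surfaces (CM4 chip); ILT4 injected at 101 to 0.79 nM, 2-fold series, 90 s association, 1200 s dissociation. Run at 25° C in HBS-P+ pH 7.4 with 100 μg/ml BSA; double-referenced global 1:1 fit with mass-transport term, KD=koff/kon.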

[7] = target: T1, recombinant human ILT4 (LILRB2); assay: KinExA, solution equilibrium, n-curve analysis
Protocol: Kinetic Exclusion Assay (KinExA®) was performed to measure the equilibrium binding affinity and kinetics between human ILT4 and four humanized LALA-Fc modified antibodies in solution. For affinity analysis, the equilibrium dissociation constant, KD, was experimentally determined and reflects the strength of the binding interaction. The rate of association, kₒₙ, was also experimentally determined, while the rate of dissociation, koff, is calculated based on the following equation: koff=KD×kₒₙ
The binding affinity (KD), association (kₒₙ), and dissociation rate constants (koff) were measured for 4 different Humanized LALA IgG antibodies to ILT4 using KinExA. An n-curve analysis of at least two different curves, run at two different CBP concentrations, was used to determine the KD of the interactions The ILT4 was used as the concentration reference for all curves. All of the binding systems have low error and well defined 95% confidence intervals giving confidence to the measurements: […]

[8] = target: T1, recombinant human ILT4 (LILRB2); assay: SPR, high resolution kinetics, triplicate, LALA antibody
[9] = target: T10, human ILT4 expressed on cells (human, UniProt Q8N423 22-597); assay: flow based HLA-G blocking assay
T10 construct: whole, on cells; The same entry is used for endogenous ILT4 of human macrophages; also called CHO-S/ILT4 cells; ILT4-CHO cells

[10] = target: T1, recombinant human ILT4 (LILRB2); assay: SPR, Biacore T200, medium resolution; koff held at its limit of 4.27e-5 s^-1
Summary of the method: as §2

T9 sequence (Q8N6C8 24-439 A105V limits assumed): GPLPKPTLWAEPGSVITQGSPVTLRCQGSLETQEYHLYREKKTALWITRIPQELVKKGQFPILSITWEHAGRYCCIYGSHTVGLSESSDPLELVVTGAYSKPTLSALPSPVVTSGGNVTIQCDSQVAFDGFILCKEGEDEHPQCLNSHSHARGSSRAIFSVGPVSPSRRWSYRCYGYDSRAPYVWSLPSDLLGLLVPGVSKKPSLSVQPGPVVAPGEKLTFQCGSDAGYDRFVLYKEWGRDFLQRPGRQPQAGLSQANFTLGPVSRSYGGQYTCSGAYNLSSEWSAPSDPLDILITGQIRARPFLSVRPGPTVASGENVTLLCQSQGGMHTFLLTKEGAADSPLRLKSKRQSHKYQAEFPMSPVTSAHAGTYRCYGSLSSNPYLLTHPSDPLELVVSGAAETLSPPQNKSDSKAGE
T1 sequence (Q8N423 other isoform, or with tags, fused parts or gaps limits assumed): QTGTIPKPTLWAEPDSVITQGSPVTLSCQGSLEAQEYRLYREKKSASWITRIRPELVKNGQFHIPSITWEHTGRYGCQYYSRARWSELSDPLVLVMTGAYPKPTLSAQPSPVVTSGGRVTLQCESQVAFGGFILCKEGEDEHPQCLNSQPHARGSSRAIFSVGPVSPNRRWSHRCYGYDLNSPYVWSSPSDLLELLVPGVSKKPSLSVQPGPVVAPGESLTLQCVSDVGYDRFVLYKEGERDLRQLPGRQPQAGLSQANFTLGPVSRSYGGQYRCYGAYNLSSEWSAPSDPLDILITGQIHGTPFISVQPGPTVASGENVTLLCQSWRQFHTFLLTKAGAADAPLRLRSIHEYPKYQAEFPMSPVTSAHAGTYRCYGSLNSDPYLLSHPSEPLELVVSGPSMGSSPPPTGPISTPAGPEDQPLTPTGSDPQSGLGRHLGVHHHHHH
T8 sequence (Q8N149 other isoform, or with tags, fused parts or gaps): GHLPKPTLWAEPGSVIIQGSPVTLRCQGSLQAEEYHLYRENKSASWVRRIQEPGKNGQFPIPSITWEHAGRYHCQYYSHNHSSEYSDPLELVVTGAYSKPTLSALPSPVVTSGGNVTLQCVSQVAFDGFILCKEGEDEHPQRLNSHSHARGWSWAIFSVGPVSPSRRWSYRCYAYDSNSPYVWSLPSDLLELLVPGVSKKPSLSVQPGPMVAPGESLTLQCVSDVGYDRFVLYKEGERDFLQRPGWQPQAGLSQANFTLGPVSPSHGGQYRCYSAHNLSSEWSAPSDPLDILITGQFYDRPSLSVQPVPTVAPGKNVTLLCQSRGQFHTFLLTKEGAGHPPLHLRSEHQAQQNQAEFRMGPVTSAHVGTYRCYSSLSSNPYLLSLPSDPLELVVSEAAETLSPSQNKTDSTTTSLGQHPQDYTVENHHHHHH
T7 sequence (P59901 other isoform, or with tags, fused parts or gaps): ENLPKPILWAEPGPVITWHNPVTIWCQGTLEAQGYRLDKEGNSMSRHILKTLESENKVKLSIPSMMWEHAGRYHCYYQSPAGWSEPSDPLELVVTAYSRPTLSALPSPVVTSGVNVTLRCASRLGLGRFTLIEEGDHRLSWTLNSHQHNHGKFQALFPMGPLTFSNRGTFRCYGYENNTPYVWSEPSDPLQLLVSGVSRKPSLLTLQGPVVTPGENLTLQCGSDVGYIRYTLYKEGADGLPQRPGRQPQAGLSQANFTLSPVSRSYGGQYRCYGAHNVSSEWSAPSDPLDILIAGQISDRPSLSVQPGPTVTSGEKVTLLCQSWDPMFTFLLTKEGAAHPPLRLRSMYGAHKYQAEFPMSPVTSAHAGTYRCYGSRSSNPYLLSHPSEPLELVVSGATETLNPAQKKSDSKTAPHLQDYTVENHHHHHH
T6 sequence (Q6PI73 other isoform, or with tags, fused parts or gaps): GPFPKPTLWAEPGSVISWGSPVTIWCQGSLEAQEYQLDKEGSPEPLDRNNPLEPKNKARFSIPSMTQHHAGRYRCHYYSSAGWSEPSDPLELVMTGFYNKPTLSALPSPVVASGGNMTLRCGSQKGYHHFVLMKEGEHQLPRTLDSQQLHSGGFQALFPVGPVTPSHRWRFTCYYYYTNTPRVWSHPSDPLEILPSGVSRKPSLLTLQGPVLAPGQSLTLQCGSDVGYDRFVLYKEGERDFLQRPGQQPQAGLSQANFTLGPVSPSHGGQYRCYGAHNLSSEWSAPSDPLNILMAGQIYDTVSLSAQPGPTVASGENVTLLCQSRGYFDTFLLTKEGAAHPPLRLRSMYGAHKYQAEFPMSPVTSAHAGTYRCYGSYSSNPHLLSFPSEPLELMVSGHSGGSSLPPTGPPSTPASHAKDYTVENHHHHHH
T5 sequence (Q8NHJ6 other isoform, or with tags, fused parts or gaps): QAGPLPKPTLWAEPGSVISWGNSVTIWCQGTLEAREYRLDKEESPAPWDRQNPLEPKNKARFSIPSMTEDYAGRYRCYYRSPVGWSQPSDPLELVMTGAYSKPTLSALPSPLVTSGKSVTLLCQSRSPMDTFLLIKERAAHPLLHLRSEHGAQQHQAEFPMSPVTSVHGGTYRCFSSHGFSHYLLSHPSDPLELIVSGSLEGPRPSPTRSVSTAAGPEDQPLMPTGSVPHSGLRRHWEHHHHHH
T2 sequence (O75019 other isoform, or with tags, fused parts or gaps): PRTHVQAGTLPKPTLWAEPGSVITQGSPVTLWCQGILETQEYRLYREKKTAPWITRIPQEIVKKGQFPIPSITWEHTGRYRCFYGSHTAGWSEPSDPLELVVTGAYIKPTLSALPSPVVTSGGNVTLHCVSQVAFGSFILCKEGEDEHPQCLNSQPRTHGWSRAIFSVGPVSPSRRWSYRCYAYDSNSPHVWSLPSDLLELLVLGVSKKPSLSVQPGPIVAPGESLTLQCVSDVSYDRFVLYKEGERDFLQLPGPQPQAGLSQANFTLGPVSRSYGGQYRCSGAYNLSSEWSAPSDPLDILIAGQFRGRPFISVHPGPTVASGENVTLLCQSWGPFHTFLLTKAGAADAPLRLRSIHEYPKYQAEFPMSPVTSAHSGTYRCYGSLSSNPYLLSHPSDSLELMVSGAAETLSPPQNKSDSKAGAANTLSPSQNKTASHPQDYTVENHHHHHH
T3 sequence (O75022 other isoform, or with tags, fused parts or gaps): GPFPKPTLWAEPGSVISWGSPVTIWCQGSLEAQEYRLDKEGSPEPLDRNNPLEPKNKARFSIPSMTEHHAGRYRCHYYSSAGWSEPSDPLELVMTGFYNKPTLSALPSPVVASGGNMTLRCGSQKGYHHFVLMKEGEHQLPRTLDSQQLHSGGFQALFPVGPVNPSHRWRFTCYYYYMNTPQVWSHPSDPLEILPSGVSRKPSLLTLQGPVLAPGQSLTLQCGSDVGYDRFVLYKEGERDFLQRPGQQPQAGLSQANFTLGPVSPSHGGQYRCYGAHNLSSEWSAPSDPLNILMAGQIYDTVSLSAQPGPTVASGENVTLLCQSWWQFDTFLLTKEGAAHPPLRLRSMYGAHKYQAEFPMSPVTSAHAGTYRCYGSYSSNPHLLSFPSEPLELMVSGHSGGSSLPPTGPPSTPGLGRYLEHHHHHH
T10 sequence (Q8N423 22-597): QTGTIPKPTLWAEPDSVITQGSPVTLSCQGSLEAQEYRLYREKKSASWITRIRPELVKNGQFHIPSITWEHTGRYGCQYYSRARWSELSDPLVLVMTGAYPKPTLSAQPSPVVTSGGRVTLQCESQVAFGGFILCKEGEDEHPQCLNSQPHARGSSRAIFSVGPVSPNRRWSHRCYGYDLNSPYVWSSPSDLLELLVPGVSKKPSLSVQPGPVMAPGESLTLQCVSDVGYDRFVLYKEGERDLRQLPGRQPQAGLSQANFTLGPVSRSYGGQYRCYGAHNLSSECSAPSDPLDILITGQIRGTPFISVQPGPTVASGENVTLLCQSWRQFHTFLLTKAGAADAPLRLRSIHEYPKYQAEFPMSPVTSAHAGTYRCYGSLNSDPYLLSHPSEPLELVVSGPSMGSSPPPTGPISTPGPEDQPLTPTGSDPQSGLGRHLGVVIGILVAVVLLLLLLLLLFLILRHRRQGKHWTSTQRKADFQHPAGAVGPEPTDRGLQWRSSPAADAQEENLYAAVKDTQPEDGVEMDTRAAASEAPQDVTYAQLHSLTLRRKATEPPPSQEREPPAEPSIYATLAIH
T4 sequence (A6NI73 other isoform, or with tags, fused parts or gaps): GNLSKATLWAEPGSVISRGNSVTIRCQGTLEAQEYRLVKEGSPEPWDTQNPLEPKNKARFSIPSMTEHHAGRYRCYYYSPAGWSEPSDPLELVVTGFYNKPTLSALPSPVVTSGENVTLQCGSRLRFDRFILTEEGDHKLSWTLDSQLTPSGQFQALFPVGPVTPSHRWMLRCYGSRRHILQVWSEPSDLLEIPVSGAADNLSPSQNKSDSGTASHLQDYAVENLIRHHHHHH

B1: Hz180-LALA (antibody, human IgG1, kappa, L234A L235A, V domains shown)
VH: QVQLVQSGAEVKKPGSSVKVSCKASGYSFIGYFMNWMRQAPGQGLEWIGRINPYNGDIFYNQKFKGRVTITVDKSTSTAYMELSSLRSEDTAVYYCARGITVAAGSFDVWGQGTTVTVSS
VL: DIVMTQSPDSLAVSLGERATINCRASESVDNYGNTFMHWYQQKPGQPPKLLIYRASNLESGIPDRFSGSGSGTDFTLTISSLQAEDVAVYYCQQSSDHPLTFGGGTKVEIKR
notes: Humanized L180S4, human IgG1 L234A/L235A, kappa; also called Humanized 180_04; Hz 180 04
How did the KD [1] turn out when B1 was run?
The KD was under 0.1 nM.

Does B1 bind (LILRA1)?
Result: binds

Does B1 bind (LILRB3)?
Result: no binding (tested: 100 nM)

Does B1 bind (LILRA5)?
Result: no binding (tested: 100 nM)

Does B1 bind (LILRB4)?
Result: no binding (tested: 100 nM)

Does B1 bind (LILRA6)?
Result: no binding (tested: 100 nM)

Does B1 bind (LILRA4)?
Result: no binding (tested: 100 nM)

Does B1 bind (LILRA2)?
Result: no binding (tested: 100 nM)

What about the Kd (LILRA3 [2]) of the same binder?
The Kd was 600 to 700 nM.

And the KD (LILRA3 [3])?
The KD was 600 to 700 nM.

And the Kd (LILRA3 [4])?
Its Kd is 600 to 700 nM.

And the kon [5]?
The kon was 3.95e+06 M⁻¹ s⁻¹.

And the kon [6]?
The kon was 812000 M⁻¹ s⁻¹.

What about the Kd [7] of the same binder?
Its Kd is 0.000759 nM.

And the Kd [8]?
Its Kd is 0.0016 nM.

And the koff [8]?
The koff was 6.3e-06 s⁻¹.

What about the IC50 [9] of the same binder?
The IC50 was 0.051 µg/mL.

And the Kd [10]?
The Kd was at most 0.053 nM.

What about the koff [10] of the same binder?
Its koff is at most 4.27e-05 s⁻¹.

— patent publication US20260167714A1 (COHERUS BIOSCIENCES, published 2026)
